B1: RNA Editing Helicase 2 (REH2) wild type with TAP tag [T. brucei] / REH2-Associated Factor 1 (^H2F1), endogenous [T. brucei (endogenous in Lister 427 29-13 procyclic cells)] (parent complex)
chain 1: FQTQEITPGEVSLVEATDESDRAFGETRKEDFSFDGSSEFPECFKDTKHVDTFSRARVVSFIKRFSQGAVTSSSEVFEGREIVNDNGTPLYHSRVRLPFRSHTGELWAHGVACNSKDAELLAAMHAEHIIDEFGYHIYTLPSMQRKHAEAARKAGRWAPLPDELERTQSPVRVPLPLRRIVDRDETEGGKWLLIDMRPNHYISPSHTLLSPCLFDTTAVHRIKSFLDEHKLSFAQLCTSVEEPGEGGGQSWYVATVSLPPELSTFSEIKAQGKALNREAAVTLACMHAELVLDAHSICLYPSDSTKQKQHALAAWSYGRPAPLPGEDQKNPSHVVCPLPLKQLAVRREDRISCISYEEDIIRRHRALTDQTCEFIETPTLDSSAVEQLKQFLQRENVPRTDPFLVEEVNGYYKATVVLPLPDLYGIRGGVGIAMNATDARVLAAMHAIDVLNILGFHLMDGSTARAEWIAARRARGESVPADTRDPNVLSPSGRRRVATGNSSTQTPSSSTNARSVAAAPDVGTSDPTAPQNTKRRVAKRARVADAQPTEEKDAANSDSDEATSYLKMRETVSKELWNLEPDSPDGYIMVSPTDPETRTQFEQALYSPRQVDLGSKSRIKNYLASVGRRIEEVFFVQRIEAEDNGGQAICRCAVNLPVPRRFGDRIALGEAVDPKDAENLAAMHAELILDTLGIPIYTDSALQRLHVRLCAKCGRNAPVEYSESVAAATASPPPLRREVVGSIHWENKSKRRRAAISVQKGGGPANSQETTSALREDEEPLIAPKERREYTFVPEKDLDLVSRARVHYYLRRNGIAKLEPEYRMELRGLGNVLHIAELTLPLPDVYGKRVAHGSALTKRDAEILCWMHAEQILDAVGLCLFDNLPMLQRRHVECVKRLGRWAPLVSENATKPPHTPTPLPLTLGTTQEKPQYPTPPTNVRQDWEQYAQECQRYIEINVMREHNIFYEMGKTPRTGDETYDAALAEVESMPIDPDAKTVLQRYCNVANVNYPTFWKSRTVGPISCRVCLTTIEVPGHEYLRASGVAWNKEASQRQAAMHALALLRRVEPDFAEFEKQIKAEVVDKVNLVDPAAVLDEEAPVLRRTARVSKKSLGNWDPVSKDFSHEGKVRIIELFTVCFGLQPPLVRHLNRRSGSFVQHFTVVEVTDEDGKTWVGTGRDAGPRFNEPAAFDDLFSKLSRGVQGFQALMDLIRAHPHLDPEHIANVSLTDSQKERILKAVDGLPMVEEEDVAHPEQWADADSDRGIGIMALIAMDASQRAQESQELEAKLQAKLTNEEYQTRYASQRQRLRIYEKRDEILRAISSNQIVIICGTTGCGKTTQVPQYILDDMTEKGMGGDCSIVITQPRRLSAVSIARRVAAERLESIGETCGYSIRLDAKPGRNINFCTSGVLLRLLHSAPLLNGINYLIIDEIHERDINSDFLLILLRQLLHRRKDLHVILMSATLQADQFGKYFGNAPIINVEGYVHAVEEMYLEDLVPIATERNVMTPLLKEAAAALERNGAADGFCPTVVPPTAKYGFLEATADIDYMTIQIAIDHAVRSLDLTDSSILVFLPGWDEINRAKEILERNAKFHIICLHSSVGAEEQMRCFLPAPEGKIKLILSTNIAESGVTIDDVAAVIDVGRGKEKSYVMRKGTTSVGRNEMGSMSQLVTVYASRANCVQRRGRVGRTRPGMCIRLYSKKHFQSLHDFQTPEMLRTHLDSLCLQILALDLGDPADFLQQALEPPSSDHIEAAMKRLHELGATTSTRQLTPLGLRLSRLPVAPKVGKMVIMGAILRCLDSALTIAGVSDTDVFISTREHREAVRLHKEDLSYGTQSDVIASVNAFNFWVTSHYAKTPAEVVYDLQERMLSVPQLLTVSKYKQQFFEIVAGSGFIHMKQNYKDAKNKDRADIFVDQSEYSADSLNVGLVKCVVASGLFPNVVMNRGKRLMRNKLANRLDPSSASVVHRTSQENIGQPYFVYDELVKSSESERLLVRDLTNVSLWTILLMGTSSMPVTYRDDLNLAVVDEWIMFRATFGTLELIRKFKRALNVCLGRKFMNPNDEENNAKLEELRCIIKELVCTPFKPNDLAEKPWEEKGVIIEPCTEPKGGSSEAEKTHVNSSHTPTTSAEAGGDS
chain 2: CHHPLRIPSVQLAAPRSHTHEDIAYASCPACSRVVHMCDMLTHLITAHRELDQTHCRKMCTERLALYERVIGVPLKKSELTSSGRRVLDFLPTVLPTGYMCNWCDRRSDVYATRDKFLKHVADVHTDIDLEEVEPHVPLPPRGVVVEKSNGDGGPQPTRRLNGVVAVAEKSEPINAVPRILGISLPRGVDRPLKATAQFSDTEFPCELCNRTFNSEIDLLQHLETRHPDGTAEGPAGVDSAAIADVAQFSAKEATTGGDQRVHVICDLCVSSSKVYKMPSALFSHIRFKHPNEDAAFHVERLIREQKTVSSFVCTVCQKAFASAAALDGHFNSKHAEQGEAQNVVGRVTANNCWWCHDCEKGFSSAKGLHGHMQNKHGLSSQTHPCPACKRVFADIYSLEEHLSLQHKTIRLSDIGLLTHVKCSTCERFFLSHEDLHRHAVKHHKKDPRAPAQPFEAPTSASHVAASTSAAVPSEVEATASPQGPRKVKKRKKTTEVSEVTS

Variants of: B1
Test: IgG pulldown of TAP-tagged REH2, western blot quantification; parent: 1; read off a plot

Point of comparison: chain 1 K1048A, chain 1 A1056D, ratio to parent ~1. Against it:
- chain 1 R1993A — lower, ~0.92
- chain 1 R1949A — higher, ~1.1
- chain 1 H1968E — lower, ~0.97
